A protein production outcome set (Wang et al. 2014)

Assay: label from the status in PepcDB records

For “MKIRNDGPALAGWNVAWEMPDGQEITNSWNGRFVQTGAHVDVGNLDWNKDIPAGSNIEFGFNGSHTGRNRTPASLSVNGVKCTMAVAAPPPSPRPAACEATYQISDQWNTGFTANVRIRNDGDPLAGWKVVWDMPDGQRVTNSWNGRFTQSGSHVEVGHLDWNRDIATGSNIEFGFNGSHAGANRAPSSLSLNGVACALVTVAPSPTPAPTATPSPIPTPTPSPAPTASPSPAPTPTPAPTSSPSPTPAPTGPCQADYQVTAQWNDGFTANVKVRNNGTALDGWTVAWTMPSGQTVTGMWNGQYVQTGPQVAVTPADWNRQIASGASIEFGFNGSHSGSNAVPGVLTLNGAACATTTGGGTPTPTPVPVAPGAPAGLSATVADNAVVNLVWTAADAFAQGFRIERRTAAGVDWALVAETAAGVPSFGDGTVAMGNDYEYRVYAFNAVGNSPPATASASLPTLLKYGESQYQKQGCASCHGKDGKGGFTNKPLVHFTADQLATLTEIIRVRMPPSKPANCVSNCAAGTAKYIIEVLAAAASGGGGGGGNACAGSPPPGGRALRLLTRQEYQNTVNDLLGLSENLVHLLPEENRVDGFDNNVATNLVTSIRLEAFLTQAEALAAKAVQQNWNALLPCTQQDAACARRFVEAFGKRAYRRPLTPEEADAYAALFGQGSFREGVEATITHMLVSPNFLYRSELGEVQADGTYKLTPYETASALSYLFLGSLPDGELVSAADQNLLDTPDQRIAHASRLLSLPRSRNRVGHFVGQWLLGTSPYTLPEKDQAVYPRYDAAVRSAMSEELIGFFDHVAFESTQSFPELFTANYVVVDDTLADYYGLGRPGGSGFAPVTVSDGTRTGILTLGAVLSRYANSNESHPFKRGGFLYKRLLCRDLPLPANAGFIQAPQPDPNATTRQRFEFHSKSNTSCYGCHQYLDGPGFGFENYDGAGIFRASENGQAIDASGVLRGLETFTPTEELSFTDLPDLSRKIAASPTAAQCAARQYYRFATGRREASSDSCALDSFLQTYSANGHNLQTMLLGIVNAPGFTVRRADQ”, the protein production was “failed”.

In the case of “MMVAVIPAYNEEKNIISVLKDLSDINIDVIVVDDGSTDKTKTIINEFLEKNEFKNKIFPIFKEKNEGKSKALEDGTNYAINLNYDAIAYLDGDYQHKPSDIIPMYEKMKSENADAVFGIRKYKHIPFHRQFSNFLASVIMSITVSVFSGNFHIFRDIQCGFRIIKSEFLKNSYFGDGYSVEHLIALQLAKKNAKITEEYVTIDYHNDAISYITTKKILDVVKEVAKYVLSKH”, the protein production is reported as “failed”.

For “MPIRDDISWPPSAVCSVSLILHLPGRFGHVSVAHLLLDHGADVNAQNRLGASVLTVASRGGHLGVVKLLLEAGAFVDHHHPSGEQLGLGGSRDEPLDITALMAAIQHGHEAVVRLLMEWGADPNHAARTVGWSPLMLAALTGRLGVAQQLVEKGANPDHLSVLEKTAFEVALDCKHRDLVDYLDPLTTVRPKTGQAACPPWLHRGPQIVFMWLKLRIALLEGHAELRVQPCRPLRLRKWCA”, the protein production was “not failed”.

For “MSRTTASTCMGERRQSSLKRLAIFRPVQRLPARELLPLDGDRWLVAAQRREPERGPNGLGNGQRRPVQFRREVPGEHDVCIHIHRAVGFEDVIHDEPHPVGGLPFDDIRCGHIYALLGQSIGYVRVVSDADLDDGIDRRQSVDKRAGGVGHVVQFMRCGRICVPMHVDIVPVGEVSAQVKREASDGLRSVYDCEVSMHEPQSIPAGAYDGDRDQYRAEEFIDLARRVGSGGKNIAITPKDLFYRRRNYVFGLAYLGGSGSVISTYRLQTSSDGGFSNRSAGEIFSQRVRKEVVHEVGHTLGLEHCDNKRCVMNFSPTVRQVDVKEVSLCGSCQRNVL”, the protein production was “failed”.

For “MVKLDRYIGVTVFVAILAVLGVILGLALLFAFIDELNDISASYGIGDALRFIFLTAPRRAYDMLPMAALIGCLVGLGTLASNSELTIMRAAGVSLSRIVWAVMKPMLVLMLAGILVGEYVAPWTENIAQSGRALAQGGGDSQSSKRGLWHRQGREYIHINAVQPNGVLYGVTRYRFDEQRGLESASFAKRARFETDHWQLEEVTTTLLHPREKRSEVVKLPTERWDAQLSPQLLNTVVMEPEALSISGLWQYIHYLADQGLNNNRYWLAFWTKVLQPLVTAALVLMAISFIFGPLRSVTLGQRIFTGVLVGFVFRIAQDLLGPSSLVFDFPPLLAVVIPASICALAGVWLLRRAG”, the protein production was “failed”.

In the case of “MTYNKIMSAAESMEDGIEDMENNLESWGDDMNEYFGDEYEKAETISLDGIKNFFLKAEVGEVKIEISDRADEASYKIQRINPKYFDVEKKGDTISFEDNTPSKFFKNLGFNFKNNSPKIYISLPRNIVFNNFEIKSGVGELDIHDINVEKFNLSAGVGEVNIYDAKISKDAEIKAGVGEVNFKDSTVTNMDIKSGVGSFSFSGTALGKTSVKGGIGEVDLKINGSEKDYDFDVSAGLGEVIINGKKSKTFLADRQKSGSIAQNSITVKGGIGSISIRFKNLEHHHHHH”, the protein production is reported as “failed”.

In the case of “MSAYDNVIGGKLKLKGKALDVKAGGVKKKKKHKRQEEQALKITDHELIEGESTEALGKLIEGEEGDEEMNRSEKASEDAKLQQQLDDDDHLTPAERRYIEQKQRLDVQKLAKEANKSHRNRIEDFNQYLANMSEHYDIPKVGPG”, the protein production is reported as “failed”.

For “AIAKLPISTISPIHYMKSVVSSRETRNESNKSRRTFASTEWNKIIRETLYLETVYIPVDATSHSPDIIFKLQSPVEPKVLTVGVACKGRWKSEGIGWSDIIDEAKKFLDPVYDQVLSSAMDYHHCMLIIVSTKLSLNVSNELGNQSRCYSSGMFIGGDSFKVPDNCELVILCERDVQMLIDKEILNGLERAFCVSHNPTFWDFGLDLLDRIRNSFLSWQ”, the protein production was “failed”.

In the case of “MSQVHRILNCRGTRIHAVADSPPDQQGPLVVLLHGFPESWYSWRHQIPALAGAGYRVVAIDQRGYGRSSKYRVQKAYRIKELVGDVVGVLDSYGAEQAFVVGHDWGAPVAWTFAWLHPDRCAGVVGISVPFAGRGVIGLPGSPFGERRPSDYHLELAGPGRVWYQDYFAVQDGIITEIEEDLRGWLLGLTYTVSGEGMMAATKAAVDAGVDLESMDPIDVIRAGPLCMAEGARLKDAFVYPETMPAWFTEADLDFYTGEFERSGFGGPLSFYHNIDNDWHDLADQQGKPLTPPALFIGGQYDVGTIWGAQAIERAHEVMPNYRGTHMIADVGHWIQQEAPEETNRLLLDFLGGLRP”, the protein production is reported as “not failed”.

For “MSERIVPSGDVELWSDDFGDPADPALLLVMGGNLSALGWPDEFARRLADGGLHVIRYDHRDTGRSTTRDFAAHPYGFGELAADAVAVLDGWGVDRAHVVGLSMGATITQVIALDHHDRLSSLTMLLGGGLDIDFDANIERVMRGEPTLDGLPGPQQPFLDALALMNQPAEGRAAEVAKRVSKWRILSGTGVPFDDAEYARWEERAIDHAGGVLAEPYAHYSLTLPPPSRAAELREVTVPTLVIQAEHDPIAPAPHGKHLAGLIPTARLAEIPGMGHALPSSVHGPLAEVILAHTRSAA”, the protein production was “not failed”.

With “MAMPEIDALLGLSFCLYFFDNKQHKLPHIHVKYGSYELIIAIETGECLEGYLPNKQRKRAENHILEHREQLMVMWNKAVNGENPGKLGDLCLEHHHHHH” the protein production was “failed”.

For “MRLPRQIRLPHLRDIGALLTDSAREWSRHRASSKGAALSLYMVFSLAPMLILVIAVAGAFFGEEAVRSELFSQVRDLTGERGAEVIQTVLASAHESGSGWLAALLSICVLVFSATTAFAELKASLDELWDVKEDKSGLQGLVRSRMLSFGLVLVLALFLLLSLTLNAALGAAKGYYGDLWSTSAFAMAADWLSNLFSFAVVTALFAVVYKLLPSKRIPWLDVIPGAIVTAALFLAGKWGIGLYLERGTAVSAYGAAGSLIALLLWIYYSAQIFFFGAVFTRQFAERFGNLRRAAPA”, the protein production was “not failed”.

For “MDRADLRIAVLMGTKDGAPFIDEQLQSLLAQSHPLIDLWISDDGSVDGTVPIIEAWKSRWTKGRVTLVQGPREGFAANFRSMILDRRIDADFYAFSDQDDVWEPDRLESAVQWMQAFGAEPPLMFCSRTATMTETGSLAGHSPLFRRPPSFRNALVQSIAGGNTILLNRAARDLLARASARTGFVSHDWWAYLVVTGAGGVVHYDPRPLVRYRQHAANLVGANVSWAARVSRLGRLFKGEFADWTDLNLAGLAVNRDLLTPDAATCLDLFASGRQGSLFQRLRTLLVSGVYRQTLAGTLGLYLAFVLGRILEHHHHHH”, the protein production was “failed”.

For “MFQENRTNELVILKEIAETLNTSNDTYHVLQAVLEKLLSVTGLTTGWIFLADEDGRYTKLIDYQLPEALTYENKRPMCEGECWCLRGFVDGKLERAVNIIECKRINNAIEYNWGDTEGILHHATVPLKAGGEKFGLLNVASPGKTHFSEEELVLLQSVAFQIGTALKRAKLYENEKRRAH”, the protein production was “failed”.

In the case of “ISDQAETPMFNIGSAVPRGELVLAMEKIGKLLQERGGSVVIRGHTDGRQFKGEANDNWRLSMDRAHSAYYMLVRGGLSEERVKQVSGFADRRLQVPSNPLADANRRIEILLEADRG”, the protein production is reported as “failed”.
